# In patent EP4782464A1 (Nanjing Legend Biotech Co., Ltd., dated 2026):
# T1: mouse GCC (guanylyl cyclase C, GUCY2C) on cells (mouse, UniProt Q3UWA6 20-1072)
# T1 construct: whole, on cells; also called Dubca-mouse GCC.Luc
# T1 sequence (looked up): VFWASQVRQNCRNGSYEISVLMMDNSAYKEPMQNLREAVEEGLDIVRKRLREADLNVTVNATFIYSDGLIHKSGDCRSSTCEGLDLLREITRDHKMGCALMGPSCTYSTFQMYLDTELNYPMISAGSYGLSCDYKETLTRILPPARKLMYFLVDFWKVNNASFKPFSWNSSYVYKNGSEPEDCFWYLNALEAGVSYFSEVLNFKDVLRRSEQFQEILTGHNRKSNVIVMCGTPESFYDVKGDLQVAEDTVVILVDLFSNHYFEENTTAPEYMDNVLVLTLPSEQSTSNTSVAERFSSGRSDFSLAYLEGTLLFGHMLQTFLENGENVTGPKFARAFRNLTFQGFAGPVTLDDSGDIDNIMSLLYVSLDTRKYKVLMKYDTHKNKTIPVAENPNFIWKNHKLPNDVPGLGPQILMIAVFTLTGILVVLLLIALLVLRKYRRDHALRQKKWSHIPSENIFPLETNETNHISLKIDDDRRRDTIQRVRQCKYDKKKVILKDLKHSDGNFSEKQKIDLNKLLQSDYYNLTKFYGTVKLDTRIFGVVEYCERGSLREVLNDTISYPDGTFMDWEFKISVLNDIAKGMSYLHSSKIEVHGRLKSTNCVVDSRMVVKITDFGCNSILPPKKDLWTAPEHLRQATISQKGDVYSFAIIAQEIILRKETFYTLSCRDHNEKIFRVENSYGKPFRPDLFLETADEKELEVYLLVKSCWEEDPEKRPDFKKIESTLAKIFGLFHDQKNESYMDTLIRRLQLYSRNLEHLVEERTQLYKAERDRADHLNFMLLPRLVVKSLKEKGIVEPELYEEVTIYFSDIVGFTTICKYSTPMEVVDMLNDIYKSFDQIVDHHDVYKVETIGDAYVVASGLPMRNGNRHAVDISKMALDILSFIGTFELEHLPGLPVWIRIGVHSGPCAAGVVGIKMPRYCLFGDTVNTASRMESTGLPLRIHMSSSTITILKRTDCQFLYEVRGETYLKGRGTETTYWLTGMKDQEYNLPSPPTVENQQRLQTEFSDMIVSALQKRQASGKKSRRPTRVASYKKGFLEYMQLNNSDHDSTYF
# T2: His-tagged mouse GUCY2C/guanylyl cyclase C protein (ACRO GUC-M52H3) (mouse, UniProt Q3UWA6 20-433, limits assumed)
# T2 construct: Bought protein; also called mouse GCC-his protein; mouse GCC-his; not shown: His tag
# T2 sequence (looked up): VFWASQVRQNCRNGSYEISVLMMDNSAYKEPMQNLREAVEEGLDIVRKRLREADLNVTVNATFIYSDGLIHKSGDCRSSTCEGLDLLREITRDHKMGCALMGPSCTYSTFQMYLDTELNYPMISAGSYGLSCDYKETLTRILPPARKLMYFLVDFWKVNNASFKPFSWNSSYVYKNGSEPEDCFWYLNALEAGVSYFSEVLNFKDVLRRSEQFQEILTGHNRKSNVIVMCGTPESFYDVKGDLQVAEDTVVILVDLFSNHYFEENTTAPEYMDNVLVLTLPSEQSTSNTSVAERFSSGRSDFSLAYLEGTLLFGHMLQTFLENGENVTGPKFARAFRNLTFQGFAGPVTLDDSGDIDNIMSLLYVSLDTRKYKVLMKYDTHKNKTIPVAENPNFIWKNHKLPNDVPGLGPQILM
# Tests used:
# [1] = target: mouse GCC (guanylyl cyclase C, GUCY2C) on cells (mouse) (UniProt Q3UWA6); experiment: flow cytometry, B cell clone supernatant on Dubca-mouse GCC.Luc cells
# [2] = target: T3, human GCC (guanylyl cyclase C, GUCY2C) on cells (human, UniProt P25092 24-1073); experiment: flow cytometry, B cell clone supernatant on Dubca-human GCC.Luc cells
# T3 construct: whole, on cells; also called Dubca-human GCC.Luc
# [3] = target: human GCC (guanylyl cyclase C, GUCY2C) on cells (human) (UniProt P25092); experiment: as above
# [4] = target: T3, human GCC (guanylyl cyclase C, GUCY2C) …; experiment: flow cytometry on 293T-human GCC.Luc cells
# [5] = target: T1, mouse GCC (guanylyl cyclase C, GUCY2C) …; experiment: flow cytometry on 293T-mouse GCC.Luc cells
# [6] = target: T4, His-tagged human GUCY2C/Guanylyl cyclase C protein (ACRO GUC-H52H5) (human, UniProt P25092 24-430); experiment: ELISA, plate coated with human GCC-his protein at 1 µg/mL
# T4 construct: Bought protein; also called human GCC-his protein; human GCC-his; not shown: His tag
# [7] = target: T2, His-tagged mouse GUCY2C/guanylyl …; experiment: ELISA, plate coated with mouse GCC-his protein at 1 µg/mL
# Sequence of human GCC (guanylyl cyclase C, GUCY2C) on cells (human) (P25092 24-1073): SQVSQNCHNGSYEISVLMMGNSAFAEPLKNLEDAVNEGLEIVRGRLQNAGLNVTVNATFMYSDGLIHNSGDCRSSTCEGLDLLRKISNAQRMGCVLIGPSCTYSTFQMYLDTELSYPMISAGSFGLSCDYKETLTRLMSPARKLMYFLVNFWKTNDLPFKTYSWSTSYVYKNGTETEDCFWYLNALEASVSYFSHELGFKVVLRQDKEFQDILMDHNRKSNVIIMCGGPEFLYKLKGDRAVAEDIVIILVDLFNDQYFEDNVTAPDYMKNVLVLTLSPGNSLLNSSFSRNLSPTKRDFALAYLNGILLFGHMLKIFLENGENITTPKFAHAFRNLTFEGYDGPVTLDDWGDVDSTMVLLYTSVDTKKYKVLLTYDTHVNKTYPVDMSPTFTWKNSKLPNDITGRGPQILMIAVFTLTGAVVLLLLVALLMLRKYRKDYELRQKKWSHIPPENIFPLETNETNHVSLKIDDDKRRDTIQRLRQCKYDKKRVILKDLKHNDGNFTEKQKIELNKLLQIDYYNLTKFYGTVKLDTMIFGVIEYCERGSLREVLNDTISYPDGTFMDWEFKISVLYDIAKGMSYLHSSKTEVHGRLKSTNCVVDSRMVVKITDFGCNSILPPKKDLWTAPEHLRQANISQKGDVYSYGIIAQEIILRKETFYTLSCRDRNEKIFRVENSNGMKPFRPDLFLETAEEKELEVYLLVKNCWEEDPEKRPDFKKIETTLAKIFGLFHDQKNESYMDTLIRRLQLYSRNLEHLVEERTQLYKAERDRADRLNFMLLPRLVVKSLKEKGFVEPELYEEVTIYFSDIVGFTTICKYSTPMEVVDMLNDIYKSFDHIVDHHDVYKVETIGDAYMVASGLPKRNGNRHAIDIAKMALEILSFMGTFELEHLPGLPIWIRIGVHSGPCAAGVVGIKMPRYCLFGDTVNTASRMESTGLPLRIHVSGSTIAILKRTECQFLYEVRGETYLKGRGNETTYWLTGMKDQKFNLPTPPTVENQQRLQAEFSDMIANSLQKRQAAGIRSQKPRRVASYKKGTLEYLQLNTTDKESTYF
# T3 sequence (P25092 24-1073): as above
# T4 sequence (P25092 24-430 limits assumed): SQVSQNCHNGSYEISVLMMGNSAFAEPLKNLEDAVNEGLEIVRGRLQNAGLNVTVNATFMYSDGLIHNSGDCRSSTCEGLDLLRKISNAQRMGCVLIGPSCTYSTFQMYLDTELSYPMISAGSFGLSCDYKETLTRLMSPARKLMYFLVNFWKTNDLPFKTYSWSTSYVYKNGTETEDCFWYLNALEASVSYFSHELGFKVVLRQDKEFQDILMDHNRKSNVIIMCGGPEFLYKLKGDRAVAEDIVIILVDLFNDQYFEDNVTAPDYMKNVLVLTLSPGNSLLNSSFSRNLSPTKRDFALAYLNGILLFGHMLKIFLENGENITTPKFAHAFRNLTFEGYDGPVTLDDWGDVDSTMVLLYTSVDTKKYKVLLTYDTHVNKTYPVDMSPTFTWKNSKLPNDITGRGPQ
Binder,percent of cells bound (flow cytometry) [1] [%],binding result [2],percent of cells bound (flow cytometry) [3] [%],EC50 [4] [pM],EC50 [5] [pM],EC50 [6] [pM],EC50 [7] [pM]
"48D5 (anti-GCC rabbit monoclonal antibody, B cell clone supernatant) (antibody, V domains shown) VH: QSLEESGGRLVKPDETLTITCTVSGIDLSSNAISWVRQAPGEGLEYIGYIGTGGKSFYATWTKGRFTISKTSTTVDLKMTSLTNEDTAMYFCATGNTYLDLWGQGTLVTVSS VL: AQVLTQTPSSVSAAVGGTVTINCQSSQSVYGADYLAWYQQKPGQPPKLLIYRASNLASGVPSRFRGSGSGTQFTLTISEVQCDDAATYYCQGTYISSDWLNPFGGGTEVVVK",81.8,,65.9,,,,
"22G5 (anti-GCC rabbit monoclonal antibody, B cell clone supernatant) (antibody, V domains shown) VH: QSVEESGGRLVTPGTPLTLTCTVSGIDLSSYAMTWVRQAPGEGLEWIGTINTISTAYYANWAKGRFTISKTSTTVDLKIASPTTEDTATYFCARDHGYYDVWGQGTLVTVSS VL: AQVLTQTPSSVSAAVGGTVTINCQASQSVYKNNYLSWYQQKPGQPPRLLIYDASTLASGVPSRFKGSGSGTQFTLTISGVQCDDAATYYCLGEFSCSSGDCAAFGGGTEVVVK",74.1,,99.9,,,,
"22G5-Rabbit IgG (antibody, V domains shown, Recombinant rabbit IgG (IgG1k) expressed in HD CHO-S cells: 22G5 VH-Rabbit IgG CH1-CH2-CH3 and 22G5 VL-Rabbit IgG CL; also called 22G5-Rabbit IgG antibody; 22G5 antibody) VH: QSVEESGGRLVTPGTPLTLTCTVSGIDLSSYAMTWVRQAPGEGLEWIGTINTISTAYYANWAKGRFTISKTSTTVDLKIASPTTEDTATYFCARDHGYYDVWGQGTLVTVSS VL: AQVLTQTPSSVSAAVGGTVTINCQASQSVYKNNYLSWYQQKPGQPPRLLIYDASTLASGVPSRFKGSGSGTQFTLTISGVQCDDAATYYCLGEFSCSSGDCAAFGGGTEVVVKG",,,,102,1230,619,824
"25E2 (anti-GCC rabbit monoclonal antibody, B cell clone supernatant) (antibody, V domains shown) VH: QSVEESGGRLVTPGTPLTLTCTVSGIDLNKHAMGWVRQAPTKGLEWIGTIYVSTNTAYASWAKGRFTISKTSSTTVDLKMTSLTTEDTATYFCARGGGSSYYTGELYFNLWGQGTLVTVSS VL: AYDMTQTPASVEVAVGGTVSIKCQVSQSIGSWLAWYQQKPGQPPKLLIYSASTLASGVSSRFKGSGSGTEFTLTISDLACVDAATYYCQSYSSASTTAFGGGTEVVVR",95.4,,95.1,,,,
"21E1 (anti-GCC rabbit monoclonal antibody, B cell clone supernatant) (antibody, V domains shown) VH: QSLEESGGRLVTPGTPLTLTCTVSGIDLSSYDMTWVRQAPGKGLEWIGSIGDDGNTYYATWAKGRFTISKTSTTVHLKMTSLTTEDTATYFCARGWSFCKSWGQGTLVTVSS VL: AQVLTQTASPVSAAVGGTVTISCQSSQSVANNNLAWYQQKPGQPPSPLIYKASTLESGVPSRFSGSGSGTQFALTISGVQCDDAATYYCQGAYRSGIMAFGGGTEVVVR",99.7,,95.4,,,,

# Now from value to binder:
percent of cells bound (flow cytometry) [1] [%],binding result [2],percent of cells bound (flow cytometry) [3] [%],EC50 [4] [pM],EC50 [5] [pM],EC50 [6] [pM],EC50 [7] [pM],Binder
99.2,no binding,,,,,,"14C2 (anti-GCC rabbit monoclonal antibody, B cell clone supernatant) (antibody, V domains shown, Tested as native rabbit antibody in B cell clone supernatant; also called 14C2-B cells; clone 14C2) VH: QSLEESGGRLVTPGTPLTLTCTASGFSLSNYDMSWVRQAPGKGLEWIGTIEPDGSTWYASWAKGRLTISRTSTTVDLKMTSLTTEDTATYFCVRGAPDYSSNAFNLWGQGTLVTVSS VL: DVVMTQTPSSVSEPVGGTVTIKCQASQSISSYLAWYQQKPGQPPKLLIYKASTLASGVSSQFRGSGSGTEFTLTISDLECADAATYYCQSTYAASNKLHFAFGGGTDVVVK"
,,,25.4,284,671,899,"PF0098-Rabbit IgG (antibody, V domains shown, also called PF0098-Rabbit IgG antibody) VH: QVQLQQPGAELVKPGASVKLSCKASGYTFTSYWMHWVKQRPGQGLEWIGEIKPSNGLTNYIEKFKNKATLTVDKSATTAYMQLSSLTAEDSAVYYCTRTITTTEGYWFFDVWGAGTTVTVSS VL: DIVLTQSPASLAVSLGQRATISCRASESVDYYGTSLMQWYQQKPGQPPKLLIYAASNVESGVPARFSGSGSGTDFSLNIHPVEEDDIAMYFCQQTRKVYTFGGGTKLEIKG"
